Data: patent publication US12729368B2, “Methods and compositions for generating oligodendrocyte progenitor cells” (Trailhead Biosystems Inc., priority 2022, dated 2026)
Where “and” joins values, the source holds several entries; their conditions need not be identical. Equal values may be shown once.

B1: NT-3: TrkC agonist (protein, UniProt P20783 139-257, looked up)
Neurotrophin-3: YAEHKSHRGEYSVCDSESLWVTDKSSAIDIRGHQVTVLGEIKTGNSPVKQYFYETRCKEARPVKNGCRGIDDKHWNSQCKTSQTYVRALTSENNKLVGWRWIRIDTSCVCALSRKIGRT
B2: Activin A: an activator of one of the receptors of TGF-b superfamily (protein, UniProt P08476 311-426, looked up)
Inhibin beta A chain: GLECDGKVNICCKKQFFVSFKDIGWNDWIIAPSGYHANYCEGECPSHIAGTSGSSLSFHSTVINHYRMRGHSPFANLKSCCVPTKLRPMSMLYYDDGQNIIKKDIQNMIVEECGCS

Key:
Format in all cases: cell-based, human
OPCs [1] = experiment: HD-DoE 8-factor model for stage 4 on OPCs; details: optimized for maximal expression of CNP at 1339; positive
Procedure: (§1) To engineer the recipe of stage 4 of differentiation, 48 or 96 different combinations of effectors generated using Design-of-Experiments compression through D-optimality were robotically prepared. The effector combinations were prepared in a basal media and were subsequently added to the cells, which were treated with the stage 1, stage 2 and stage 3 differentiation media as described in the earlier examples to generate OPCs. […] Solutions within the tested space could then be explored to address desirability.

OPCs [2] = experiment: HD-DoE 12-factor model for stage 4 on OPCs, 6 days in culture; details: positive
Procedure: as §1, with “desirability. […] Benarroch (2009) Neurology 72:1779-1785; Shi et al. (2019) Exp Ther Med, 18:1258-1266).” for “desirability.”

stage 2 early-OPCs [3] = experiment: HD-DoE 8-factor model for stage 3 (version 1) on stage 2 early-OPCs; details: optimized for maximum expression of OLIG1 at 256; positive impact
Procedure: To further differentiate the cells to an oligodendrocyte progenitor identity, additional HD-DoE experiments were performed on the cells that were cultured in stage 1 and stage 2 differentiation media. After 3 days, gene expression of cells in different combinatorial conditions were investigated. At this time, we focused on maximal expression of signature oligodendrocyte progenitor genes such as SOX10, OLIG1 and PDGFRa (Goldman and Kuypers (2015) Development 142:3983-95; Marques et al. (2016) Science 352:1326-1329). In one 8-factor model, individual and combinatorial effects of LDN193189, SUN 11602, Activin A, Biotin, TTNPB, Isoproterenol, linoleic acid and T3+T4 were tested.
The same model was also optimized for maximum expression of PDGFRa at 3510.9. Two factor specifically, TTNPB and Linoleic acid determined the expression level of PDGFRa with factor contribution of 71.6 and 22.1, respectively (FIG. 17). […] The model was also optimized for highest expression of SOX10 at 18.8. In this optimization, TTNPB was the only input that could elevate the expression level of the selected gene (FIG. 18).
Dynamic profile analysis was utilized to explore combination sets that can optimize expression of all three selected genes. […]

stage 2 early-OPCs [4] = experiment: HD-DoE 12-factor model for stage 3 (version 1) on stage 2 early-OPCs; details: positive
Procedure: In another model, the effects of Activin A and TTNPB along with LDN193189, MHY1485, PDGF-AA, AICAR, FGF2, CHIR99021, DBZ, MK2206, Purmorphamine and T3+T4 were tested on gene profile of differentiating cells. When this model was optimized for maximum expression of SOX10 at 54.7, we observed Activin A again had positive regulatory impact on its expression, with factor contribution of 4.7. Other positive factors included MK2206, with the highest factor contribution at 16.2, MHY1485 at 11.49, CHIR99021 at 9.6, DBZ at 9.3, FGF2 at 3.6 and PDGF-AA, with factor contribution less than 3 (FIG. 20).
In this model, we also investigated the conditions of expression of another important OPC gene, CSPG4 (Goldman and Kuypers (2015) Development 142:3983-95: van Tilborg et al. (2018) Glia 66:221-238).
Dynamic profile analysis was used to better assess the impact of the factors on our selected genes and find the combination set that can optimize their expression (FIG. 22). According to this analysis, even though Activin A has a positive effect on SOX10, it decreases level of PDGFRa and OLIG1. […]

Molecule | factor contribution (OPCs [1]) | factor contribution (OPCs [2]; optimized for CNP at 1790) | factor contribution (OPCs [2]; optimized for PLP1 at 3600) | factor contribution (stage 2 early-OPCs [3]) | factor contribution (stage 2 early-OPCs [4]; optimized for maximum expression of CSPG4 at 38.6) | factor contribution (stage 2 early-OPCs [4]; optimized for maximum expression of SOX10 at 54.7)
B1 | 24 | 13 and 13.3 | 7 | – | – | –
B2 | – | – | – | 50.2 | 9.3 | 4.7
